{"source": "patent US20230382948A1", "about": "“DELIVERY OF ENDOTHELIAL CELL-LADEN MICROGEL ELICITS ANGIOGENESIS IN SELF-ASSEMBLING ULTRASHORT PEPTIDE HYDROGELS” (KING ABDULLAH UNIVERSITY OF SCIENCE AND TECHNOLOGY, priority 2020, published 2023)", "type_in_all_cases": "physicochemical", "key": {"[1]": {"experiment": "Microgel fabrication by flow-focusing microfluidics, microgel imaging (diameter, roundness)", "conditions": "for Microgel average diameter: SUP solution 1.5 wt %, oil with Span 80 (2%) and sodium chloride", "protocol": "Since the microgels are intended to be cell carriers, the fabrication materials were sterilized before use when possible and handled aseptically inside a biosafety cabinet (BSC) to reduce contamination risk. Milli-Q® water and hexadecane were sterilized by autoclaving at 121° C. for 20 min. Light mineral oil was sterilized by dry heating at 160° C. for 1 h. Peptide powder and sodium chloride were sterilized by UV irradiation (GE® germicidal lamp 30 W) for 30 min inside BSC. Once sterile, the peptide powder was dissolved to 27.1 mM (15 mg/mL) in sterile Milli-Q® water by vortexing for 5 min and incubated at room temperature (22° C.) for 1 h (preassembly). Span 80 was dissolved to 2% (v/v) into light mineral oil and hexadecane, independently. Sodium chloride was added to the light mineral oil+Span 80 mix and shaked to disperse the sodium chloride crystals. The peptide solution was loaded in a 1 mL syringe, while the light mineral oil with Span 80 2% (v/v) and sodium chloride 3 mg/mL were loaded in a 3 mL syringe. Both syringes were connected with the microfluidic system, and both solutions were brought to the droplet generator point by pressing the syringes manually. Then, both syringes were inserted into the pumps, and the flow rate was set at 10 μL/min for continuous phase (light mineral oil with Span 80 and sodium chloride) and 1 μL/min for dispersed phase (peptide solution). Droplet generation was monitored by on-site bright-field microscopy, and once it was stable and continuous, the droplets were collected in a tube containing light mineral oil with Span 80 2% (v/v). To confirm peptide droplet gelation, FluoSpheres® or QD were sometimes incorporated into the peptide solution during the preassembly incubation. Microgels were isolated from oil adding the same volume of hexadecane containing Span 80 (2% v/v) and centrifuged at 10 g for 5 min, and the oil layer was discarded. Microgels were washed with hexadecane plus Span 80 (2% v/v) two more times, discarding the hexadecane layer. A volume of DPBS containing Tween 20 (10% v/v) was gently added on the microgels through the collection tube walls and removed after 5 min. DPBS—Tween 20 washing was repeated 2 more times, decreasing the Tween 20 content to 1% v/v and 0.1% v/v sequentially. Finally, 250μL of DPBS was added on the microgels to keep them soaked, and they were kept on a shelf (22° C.) until further use. The microgel shape and size were checked by confocal laser scanning microscopy (CLSM).\n(§1) Microgel imaging was done at each condition and time point using a CLSM Zeiss® 710 or 880 by tile scanning with 15% overlapping and online stitching to capture as many microgels as possible from the dish. The Feret diameter and roundness of each microgel was calculated using ImageJ software by manually drawing up to 59 microgel contours per condition. All statistical data analysis and microgel descriptor plotting were conducted in Origin software. To assess the effect of the treatments on the microgel diameter and roundness, a Kruskal—Wallis test with Posthoc test pairwise Mann—Whitney U tests was applied."}, "SEM of microgels": {"experiment": "SEM of microgels", "conditions": "for Microgel surface fiber bundle thickness: SEM", "protocol": "The surface topography of the microgels was visualized using a FEI Magellan XHR Scanning Electron Microscope with an accelerating voltage of 3 kV. The SEM samples were prepared by dehydrating the peptide microgels in a gradually increasing ethanol concentration. The dehydrated microgels were then dried in a Leica EM CPD300. The dried peptides were sputter coated with 5 nm […] before imaging."}, "[2]": {"experiment": "Microgel stability under cell culture procedures", "conditions": "for Microgel size and shape stability: autoclaving, UV irradiation, trypsinization, rocking, 37 and 22° C.", "protocol": "A 400 μL amount of microgels was diluted in 6 mL of DMEM, and aliquots of 1 mL were seeded in five 35 mm plastic Petri dishes and one 40 mm glass Petri dish. Each dish containing microgels was treated as follows: (1) Autoclaving at 121° C. for 20 min using the glass dish, (2) UV irradiation for 30 min, and (3) 0.125% trypsin-EDTA at 37° C. for 5 min. In addition, the remaining dishes containing microgels were treated for 16-18 days as follows: (4) 37° C., 95% humidity, and 5% CO2, (5) 37° C., 95% humidity, and 5% CO2 under rocker conditions at 30 rpm, and (6) 22° C. on a shelf. Microgel imaging was done before treatment and follow up every other day. FIG. 31 summarizes the experimental design.\nas §1"}, "pH of peptide solutions": {"experiment": "pH of peptide solutions", "conditions": "for pH of the peptide solution: 5 mg/mL in Milli-Q water; for pH of the peptide solution after the addition of PBS: 5 mg/mL", "protocol": "The preweighed (as per the required final concentration) peptide powder was dissolved in 0.9 mL of Milli-Q® water in a glass vial. The solution was vortexed for 5-10 s to obtain a clear and homogeneous solution. To this peptide solution, 0.1 mL of PBS buffer (10×, w/o Ca^2+ and Mg^2+) was added. To ensure a homogeneous distribution of buffer in the solution, the glass vial was further vortexed for 2-3 s. The glass vial was kept undisturbed on the bench, and hydrogel formation was observed using the vial inversion method, as shown in FIG. 9. The pH of the solutions of IVFK (SEQ ID NO. 1) and IVZK (SEQ ID NO. 2) was 5.57 and 5.48 at a 5 mg/mL concentration, respectively. After the addition of PBS, the pH changed to 7.7 and 7.6 for IVFK (SEQ ID NO. 1) and IVZK (SEQ ID NO. 2), respectively. The pH of the Milli-Q® water and phosphate buffer used was 6.7 and 7.4, respectively."}, "[3]": {"conditions": "after extraction to the aqueous phase (PBS)"}, "[4]": {"conditions": "22 C. at day 0, 2, 4, 10, 12, 14, 16, 18, the 5th table"}, "[5]": {"conditions": "22 C. at day 0, 2, 4, 10, 12, 14, 16, the 4th table"}, "[6]": {"conditions": "22 C., Autoclaving, UV and Trypsin, the 4th table"}, "[7]": {"conditions": "22 C., Autoclaving, UV and Trypsin, the 5th table"}, "[8]": {"conditions": "37 C. at day 0, 2, 4, 10, 12, 14, 16, 18, the 5th table"}, "[9]": {"conditions": "37 C. at day 0, 2, 4, 10, 12, 14, 16, the 4th table"}, "[10]": {"conditions": "37 C. at day 0, 2, 4, 16, 12, 14, 16, 18, the 5th table"}, "[11]": {"conditions": "37 C. with rocking at day 0, 2, 4, 10, 12, 14, 16, 18, the 5th table"}, "[12]": {"conditions": "37 C. with rocking at day 0, 2, 4, 10, 12, 14, 16, the 4th table"}, "[13]": {"conditions": "37 C. with rocking at day 0, 2, 4, 10, 12, 14, 36, 18, the 5th table"}}}
{"substance": "Ac-Ile-Val-Cha-Lys-NH2 (IVXK; HELM PEPTIDE1{[ac].I.V.[Cha].K.[am]}$$$$V2.0; SMILES CC[C@H](C)[C@H](NC(C)=O)C(=O)N[C@H](C(=O)N[C@@H](CC1CCCCC1)C(=O)N[C@@H](CCCCN)C(N)=O)C(C)C) [IVZK, self-assembling ultrashort tetrapeptide, Z = cyclohexylalanine, forms hydrogels and microgels]", "values": [{"measurement": "Microgel swelling on extraction from the oil phase to the aqueous phase", "setting": "[1]", "value": "not"}, {"measurement": "Microgel average diameter", "setting": "[1]", "value": 350, "unit": "μm"}, {"measurement": "Microgel roundness, average", "setting": "[1]; [3]", "value": 0.88}, {"measurement": "Microgel roundness, average", "setting": "[1]; in oil", "value": 0.98}, {"measurement": "Microgel stability through SEM sample preparation", "setting": "SEM of microgels; 1.5 wt %, critical point drier", "value": "stable enough to maintain their 3D spherical structure"}, {"measurement": "Microgel surface fiber bundle thickness", "setting": "SEM of microgels", "value": "around 20 nm"}, {"measurement": "Microgel size and shape stability", "setting": "[2]", "value": "maintain their size and shape"}, {"measurement": "pH of the peptide solution", "setting": "pH of peptide solutions", "value": 5.48}, {"measurement": "pH of the peptide solution after the addition of PBS", "setting": "pH of peptide solutions", "value": 7.6}]}
{"substance": "Ac-Ile-Val-Phe-Lys-NH2 (Ac-IVFK-NH2) [self-assembling ultrashort tetrapeptide, forms hydrogels and microgels]", "values": [{"measurement": "Microgel swelling on extraction from the oil phase to the aqueous phase", "setting": "[1]", "value": 50, "unit": "μm"}, {"measurement": "Minimum concentration with many intact microgels after isolation in the aqueous phase", "setting": "[1]", "value": 0.8, "unit": "wt %"}, {"measurement": "Microgel average diameter", "setting": "[1]", "value": 300, "unit": "μm"}, {"measurement": "Microgel roundness, average", "setting": "[1]; [3]", "value": 0.88}, {"measurement": "Microgel roundness, average", "setting": "[1]; in oil", "value": 0.98}, {"measurement": "Microgel surface fiber bundle thickness", "setting": "SEM of microgels", "value": "around 20 nm"}, {"measurement": "X2 (Kruskal-Wallis), microgel diameter", "setting": "[2]; [4]", "value": 10.76}, {"measurement": "X2 (Kruskal-Wallis), microgel roundness", "setting": "[2]; [4]", "value": 7.72}, {"measurement": "p (Kruskal-Wallis), microgel diameter", "setting": "[2]; [4]", "value": ">0.05"}, {"measurement": "p (Kruskal-Wallis), microgel roundness", "setting": "[2]; [4]", "value": ">0.05"}, {"measurement": "X2 (Kruskal-Wallis), microgel diameter", "setting": "[2]; [5]", "value": 1.69}, {"measurement": "X2 (Kruskal-Wallis), microgel roundness", "setting": "[2]; [5]", "value": 1.65}, {"measurement": "p (Kruskal-Wallis), microgel diameter", "setting": "[2]; [5]", "value": ">0.05"}, {"measurement": "p (Kruskal-Wallis), microgel roundness", "setting": "[2]; [5]", "value": ">0.05"}, {"measurement": "X2 (Kruskal-Wallis), microgel diameter", "setting": "[2]; [6]", "value": 3.99}, {"measurement": "X2 (Kruskal-Wallis), microgel roundness", "setting": "[2]; [6]", "value": 6.48}, {"measurement": "p (Kruskal-Wallis), microgel diameter", "setting": "[2]; [6]", "value": ">0.05"}, {"measurement": "p (Kruskal-Wallis), microgel roundness", "setting": "[2]; [6]", "value": ">0.05"}, {"measurement": "X2 (Kruskal-Wallis), microgel diameter", "setting": "[2]; [7]", "value": 5.61}, {"measurement": "X2 (Kruskal-Wallis), microgel roundness", "setting": "[2]; [7]", "value": 1.82}, {"measurement": "p (Kruskal-Wallis), microgel diameter", "setting": "[2]; [7]", "value": ">0.05"}, {"measurement": "p (Kruskal-Wallis), microgel roundness", "setting": "[2]; [7]", "value": ">0.05"}, {"measurement": "X2 (Kruskal-Wallis), microgel roundness", "setting": "[2]; [8]", "value": 12.93}, {"measurement": "p (Kruskal-Wallis), microgel roundness", "setting": "[2]; [8]", "value": ">0.05"}, {"measurement": "X2 (Kruskal-Wallis), microgel diameter", "setting": "[2]; [9]", "value": 1.28}, {"measurement": "X2 (Kruskal-Wallis), microgel roundness", "setting": "[2]; [9]", "value": 7.52}, {"measurement": "p (Kruskal-Wallis), microgel diameter", "setting": "[2]; [9]", "value": ">0.05"}, {"measurement": "p (Kruskal-Wallis), microgel roundness", "setting": "[2]; [9]", "value": ">0.05"}, {"measurement": "X2 (Kruskal-Wallis), microgel diameter", "setting": "[2]; [10]", "value": 13.16}, {"measurement": "p (Kruskal-Wallis), microgel diameter", "setting": "[2]; [10]", "value": ">0.05"}, {"measurement": "p (Kruskal-Wallis), microgel diameter", "setting": "[2]; 37 C. with mocking at day 0, 2, 4, 10, 12, 14, 16, the 4th table", "value": ">0.05"}, {"measurement": "X2 (Kruskal-Wallis), microgel diameter", "setting": "[2]; [11]", "value": 10.89}, {"measurement": "p (Kruskal-Wallis), microgel diameter", "setting": "[2]; [11]", "value": ">0.05"}, {"measurement": "X2 (Kruskal-Wallis), microgel diameter", "setting": "[2]; [12]", "value": 5.81}, {"measurement": "X2 (Kruskal-Wallis), microgel roundness", "setting": "[2]; [12]", "value": 3.62}, {"measurement": "p (Kruskal-Wallis), microgel roundness", "setting": "[2]; [12]", "value": ">0.05"}, {"measurement": "X2 (Kruskal-Wallis), microgel roundness", "setting": "[2]; [13]", "value": 4.28}, {"measurement": "p (Kruskal-Wallis), microgel roundness", "setting": "[2]; [13]", "value": ">0.05"}, {"measurement": "Microgel size and shape stability", "setting": "[2]", "value": "maintain their size and shape"}, {"measurement": "pH of the peptide solution", "setting": "pH of peptide solutions", "value": 5.57}, {"measurement": "pH of the peptide solution after the addition of PBS", "setting": "pH of peptide solutions", "value": 7.7}]}
